Results as given in publication PMC3629940, “Exploring the structure and function of Thermotoga maritima CorA reveals the mechanism of gating and ion selectivity in Co^2+/Mg^2+ transport” (Biochemical Journal, 2013).

B1: Thermotoga maritima CorA N288L mutant (natural protein)
chain: MEEKRLSAKKGLPPGTLVYTGKYREDFEIEVMNYSIEEFREFKTTDVESVLPFRDSSTPTWINITGIHRTDVVQRVGEFFGIHPLVLEDILNVHQRPKVEFFENYVFIVLKMFTYDKNLHELESEQVSLILTKNCVLMFQEKIGDVFDPVRERIRYNRGIIRKKRADYLLYSLIDALVDDYFVLLEKIDDEIDVLEEEVLERPEKETVQRTHQLKRNLVELRKTIWPLREVLSSLYRDVPPLIEKETVPYFRDVYDHTIQIADTVETFRDIVSGLLDVYLSSVSNKTLEVMKVLTIIATIFMPLTFIAGIYGMNFEYMPELRWKWGYPVVLAVMGVIAVIMVVYFKKKKWL
notes: CorA of Thermotoga maritima with N288L; source: E. coli, overexpressed, purified (1% DDM solubilisation, Ni-NTA, TEV cleavage, Superdex 200)
B2: Thermotoga maritima CorA T299L mutant (natural protein)
chain: MEEKRLSAKKGLPPGTLVYTGKYREDFEIEVMNYSIEEFREFKTTDVESVLPFRDSSTPTWINITGIHRTDVVQRVGEFFGIHPLVLEDILNVHQRPKVEFFENYVFIVLKMFTYDKNLHELESEQVSLILTKNCVLMFQEKIGDVFDPVRERIRYNRGIIRKKRADYLLYSLIDALVDDYFVLLEKIDDEIDVLEEEVLERPEKETVQRTHQLKRNLVELRKTIWPLREVLSSLYRDVPPLIEKETVPYFRDVYDHTIQIADTVETFRDIVSGLLDVYLSSVSNKTNEVMKVLTIIALIFMPLTFIAGIYGMNFEYMPELRWKWGYPVVLAVMGVIAVIMVVYFKKKKWL
notes: CorA of Thermotoga maritima with T299L; source: E. coli, overexpressed, purified (1% DDM solubilisation, Ni-NTA, TEV cleavage, Superdex 200)
B3: Thermotoga maritima CorA T295L mutant (natural protein)
chain: MEEKRLSAKKGLPPGTLVYTGKYREDFEIEVMNYSIEEFREFKTTDVESVLPFRDSSTPTWINITGIHRTDVVQRVGEFFGIHPLVLEDILNVHQRPKVEFFENYVFIVLKMFTYDKNLHELESEQVSLILTKNCVLMFQEKIGDVFDPVRERIRYNRGIIRKKRADYLLYSLIDALVDDYFVLLEKIDDEIDVLEEEVLERPEKETVQRTHQLKRNLVELRKTIWPLREVLSSLYRDVPPLIEKETVPYFRDVYDHTIQIADTVETFRDIVSGLLDVYLSSVSNKTNEVMKVLLIIATIFMPLTFIAGIYGMNFEYMPELRWKWGYPVVLAVMGVIAVIMVVYFKKKKWL
notes: CorA of Thermotoga maritima with T295L; source: E. coli, overexpressed, purified (1% DDM solubilisation, Ni-NTA, TEV cleavage, Superdex 200)

Target: the molecule itself
Test: SEC; size-exclusion chromatography of the mutants to verify channel intactness (Supplementary Figure S2); conditions of this run not told

Binding result, binds:
B1
B2
B3
